Measurements taken from paper PMC3999857, “Periodic DNA patrolling underlies diverse functions of Pif1 on R-loops and G-rich DNA” (eLife, 2014).

Substrate: Nc1ncnc2c1ncn2[C@@H]1O[C@H](COP(=O)(O)OP(=O)(O)OP(=O)(O)O)[C@@H](O)[C@H]1O
Test: purified protein
Type: biochemical, Saccharomyces cerevisiae
Settings: 3′-(dT)40 partial duplex DNA, monomer condition (10 nM Pif1 then wash), 5 mM MgCl2, 60 mM KCl, pH 7.5, 22 °C

B1: Pif1 (Saccharomyces cerevisiae S288C) (protein)
chain: RSNNFIQAQLKHPSILSKEDLDLLSDSDDWEEPDCIQLETEKQEKKIITDIHKEDPVDKKPMRDKNVMNFINKDSPLSWNDMFKPSIIQPPQLISENSFDQSSQKKSRSTGFKNPLRPALKKESSFDELQNNSISQERSLEMINENEKKKMQFGEKIAVLTQRPSFTELQNDQDDSNLNPHNGVKVKIPICLSKEQESIIKLAENGHNIFYTGSAGTGKSILLREMIKVLKGIYGRENVAVTASTGLAACNIGGITIHSFAGIGLGKGDADKLYKKVRRSRKHLRRWENIGALVVDEISMLDAELLDKLDFIARKIRKNHQPFGGIQLIFCGDFFQLPPVSKDPNRPTKFAFESKAWKEGVKMTIMLQKVFRQRGDVKFIDMLNRMRLGNIDDETEREFKKLSRPLPDDEIIPAELYSTRMEVERANNSRLSKLPGQVHIFNAIDGGALEDEELKERLLQNFLAPKELHLKVGAQVMMVKNLDATLVNGSLGKVIEFMDPETYFCYEALTNDPSMPPEKLETWAENPSKLKAAMEREQSDGEESAVASRKSSVKEGFAKSDIGEPVSPLDSSVFDFMKRVKTDDEVVLENIKRKEQLMQTIHQNSAGKRRLPLVRFKASDMSTRMVLVEPEDWAIEDENEKPLVSRVQLPLMLAWSLSIHKSQGQTLPKVKVDLRRVFEKGQAYVALSRAVSREGLQVLNFDRTRIKAHQKVIDFYLTLSSAESAYKQLEADEQVKKRKLDYAPGPKYKAKSKSKSNSPAPISATTQSNNGIAAMLQRHSRKRFQLKKESNSNQVHSLVSDEPRGQDTEDHILE
notes: purified His6-tagged Pif1, purification as in Boule et al. 2005; monomer
**Q.** With B1 as the protein, how does the Km read?
**A.** The Km was 110 ± 17 µM.
